# B1: MIL38-AM4: Murine anti human glypican 1 monoclonal antibody produced by hybridoma cells deposited at Cellbank Australia under accession number CBA20140026 (antibody)
# heavy: QIQLVQSGPELKKPGETVKISCKASGYAFTDYSMNWVKQAPGKGLRWMGWINTETGEPTYTDDFKGRFAFSLETSASTAFLQINNLRNEDTATYFCARHYDYGGFPYWGQGTLVTVSAAKTTPPSVYPLAPGSAAQTNSMVTLGCLVKGYFPEPVTVTWNSGSLSSGVHTFPAVLQSDLYTLSSSVTVPSSTWPSETVTCNVAHPASSTKVDKKIVPRDCGCKPCICTVPEVSSVFIFPPKPKDVLTITLTPKVTCVVVDISKDDPEVQFSWFVDDVEVHTAQTQPREEQFNSTFRSVSELPIMHQDWLNGKEFKCRVNSAAFPAPIEKTISKTKGRPKAPQVYTIPPPKEQMAKDKVSLTCMITDFFPEDITVEWQWNGQPAENYKNTQPIMDTDGSYFVYSKLNVQKSNWEAGNTFTCSVLHEGLHNHHTEKSLSHSPGK
# light: DIQMTQSPASLSASVGETVTITCRASGNVHNYLAWYQQKQGKSPQLLVYTAKTLADGVPSRFSGSGSGTQYSLKINSLQPEDFGTYYCQHFWSNPWTFGGGTKLEIKRADAAPTVSIFPPSSEQLTSGGASVVCFLNNFYPKDINVKWKIDGSERQNGVLNSWTDQDSKDSTYSMSSTLTLTKDEYERHNSYTCEATHKTSTSPIVKSFNRNEC
# What was measured:
# Type in all cases: binding
# human glypican-1 (GPC-1) = test: PEPSCAN-based ELISA on linear and CLIPS peptide arrays (sets 1-5) spanning GPC-1
# Excerpt: The following human glypican-1 (GPC-1) sequence was used as a basis to generate a library of structured peptides.
# To reconstruct discontinuous epitopes of the target molecule a library of structured peptides was synthesized. This was done using Chemically Linked Peptides on Scaffolds (CLIPS) technology. CLIPS technology allowed the generation of structured peptides in single loops, double-loops, triple loops, sheet-like folds, helix-like folds and combinations thereof. CLIPS templates were coupled to cysteine residues. The side-chains of multiple cysteines in the peptides were coupled to one or two CLIPS templates. For example, a 0.5 mM solution of the T2 CLIPS template 1,3-bis (bromomethyl) benzene was dissolved in ammonium bicarbonate (20 mM, pH 7.9)/acetonitrile (1:1(v/v)). This solution was added onto the peptide arrays. The CLIPS template bound to side-chains of two cysteines as present in the solid-phase bound peptides of the peptide-arrays (455 wells plate with 3 μl wells). The peptide arrays were gently shaken in the solution for 30 to 60 minutes while completely covered in solution. Finally, the peptide arrays were washed extensively with excess of H2O and sonicated in disrupt-buffer containing 1 percent SDS/0.1 percent beta-mercaptoethanol in PBS (pH 7.2) at 70° C. for 30 minutes, followed by sonication in H2O for another 45 minutes. The T3 CLIPS carrying peptides were made in a similar way but with three cysteines.
# The binding of antibody to each of the synthesized peptides was tested in a PEPSCAN-based ELISA. The peptide arrays were incubated with primary antibody solution (overnight at 4° C.). […] After one hour, the color development was measured. The color development was quantified with a charge coupled device (CCD)-camera and an image processing system.
# The values obtained from the CCD camera ranged from 0 to 3000 mAU, similar to a standard 96-well plate ELISA-reader. The results were quantified and stored in the Peplab database. […] The cards were manually inspected and any values caused by an air-bubble were scored as 0. […]
# glypican-1 core protein = molecular target: T1, glypican-1 core protein (Homo sapiens, UniProt P35052); test: 2D electrophoresis and western blotting of DU-145 MPEK extracts
# T1 construct: endogenous in cells; host or cells: DU-145 prostate cancer cells (membrane protein extract)
# T1 sequence (P35052 24-558): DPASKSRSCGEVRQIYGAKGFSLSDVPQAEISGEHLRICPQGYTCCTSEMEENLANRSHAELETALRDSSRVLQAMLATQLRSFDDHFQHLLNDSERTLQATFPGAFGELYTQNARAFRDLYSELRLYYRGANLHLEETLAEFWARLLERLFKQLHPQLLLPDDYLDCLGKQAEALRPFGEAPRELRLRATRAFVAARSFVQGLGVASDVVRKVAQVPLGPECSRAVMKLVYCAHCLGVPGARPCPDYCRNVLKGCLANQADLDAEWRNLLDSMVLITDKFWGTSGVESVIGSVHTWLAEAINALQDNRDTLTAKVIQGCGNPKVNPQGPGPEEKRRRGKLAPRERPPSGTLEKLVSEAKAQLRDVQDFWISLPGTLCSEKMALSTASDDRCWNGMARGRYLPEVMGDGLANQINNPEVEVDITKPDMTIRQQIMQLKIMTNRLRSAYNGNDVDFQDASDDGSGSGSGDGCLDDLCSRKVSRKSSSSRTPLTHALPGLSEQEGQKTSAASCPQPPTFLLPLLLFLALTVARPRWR
# Excerpt: To confirm that MIL38 recognized glypican-1, prostate cancer DU-145 MPEK extracts were subjected to 2D electrophoresis and western blotting.
# Membrane protein extracts (MPEK) of DU-145 prostate cancer cells were separated on 2D gel (pI gradient-horizontal, and molecular mass vertical). Western blots using MIL38 antibody and commercial rGPC-1 rabbit polyclonal antibodies show overlapping reactivity marking a 60Kd protein (circled in FIG. 14). Lane D (FIG. 14) is a one dimension separation for DU-145 extracts as a control. Lane M (FIG. 14) is a one dimension separation lane for molecular size markers as controls.
# glypican-1 [1] = molecular target: T2, glypican-1 (Homo sapiens, UniProt P35052); test: Immunoprecipitation and western blot of DU-145 or C3 (MIL38 negative) MPEK extracts
# T2 construct: endogenous in cells; host or cells: DU-145 prostate cancer cells (membrane protein extract)
# T2 sequence (P35052 24-558): T1 sequence (P35052 24-558)
# Excerpt: MIL38 or rabbit anti-GPC-1 antibodies were used to immunoprecipitate their respective antigens from DU-145 or C3 (MIL38 negative) MPEK extracts. The immunoprecipitates (IPs) were western blotted with either MIL38 or anti-GPC-1 antibody (FIG. 15).
# MIL38 and rabbit anti-GPC-1 antibodies were each used to immunoprecipitate their antigens from DU-145 prostate cancer or C3 (MIL38 negative) cell membrane protein extracts. Shown are the western blots of the immunoprecipitations detected with either MIL38 or anti-GPC-1 antibody. FIG. 15A depicts GPC1 detection of MIL38 immunoprecipitates (left) and MIL38 detection of GPC1 immunoprecipitates (right). FIG. 15B depicts MIL38 detection of MIL38 immunoprecipitates as a control. Lanes are: Magic Mark-commercial protein marker as control; DU145 MPEK-prostate cancer membrane protein extract (not immunoprecipitated); DU145 FT-prostate cancer flow through from immune precipitation; DU145 IP-immunoprecipitate using antibody; C3 MPEK-(MIL38 negative) control membrane protein extract (not immunoprecipitated); C3 FT-flow through from immune precipitation; C3 IP elution-(MIL38 negative) immunoprecipitate using antibody. MIL38 can detect the immunoprecipitate from rGPC1 antibody and vice versa. MIL38 can also bind to all controls including DU145 MPEK and to IP conducted by MIL38.
# glypican-1 [2] = molecular target: T3, glypican-1 (Homo sapiens, UniProt P35052); test: MIL38 immunoprecipitation and western blot of plasma samples (normal and prostate cancer patient)
# T3 construct: from tissue; host or cells: human plasma (patients 042 and 046), with or without heparinase treatment
# T3 sequence (P35052 24-530 limits assumed): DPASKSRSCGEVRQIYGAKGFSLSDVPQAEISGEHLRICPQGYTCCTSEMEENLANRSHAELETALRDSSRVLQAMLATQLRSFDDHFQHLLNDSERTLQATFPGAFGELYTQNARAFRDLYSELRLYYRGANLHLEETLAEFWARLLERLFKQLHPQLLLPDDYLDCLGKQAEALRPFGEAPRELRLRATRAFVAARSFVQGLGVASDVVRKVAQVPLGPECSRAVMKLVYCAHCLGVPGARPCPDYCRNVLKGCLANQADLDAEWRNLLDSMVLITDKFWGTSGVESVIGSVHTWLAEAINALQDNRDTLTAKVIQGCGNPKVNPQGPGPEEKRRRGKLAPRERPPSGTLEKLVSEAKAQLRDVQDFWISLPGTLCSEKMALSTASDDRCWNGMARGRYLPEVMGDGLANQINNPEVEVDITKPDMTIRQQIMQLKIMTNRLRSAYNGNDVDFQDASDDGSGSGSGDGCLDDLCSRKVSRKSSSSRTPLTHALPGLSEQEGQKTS
# Excerpt: Plasma samples from one normal patient (042) and one prostate cancer patient (046) were immunoprecipitated with MIL38 antibody and the IP sample western blotted with MIL38 and anti-GPC-1 antibodies (FIG. 16A).
# MIL38 antigen = molecular target: T4, MIL38 antigen (Homo sapiens, UniProt P35052); test: Western blot of membrane protein extracts from normal prostate and prostate cancer; settings: equivalent amounts of protein
# T4 construct: tissue Novus Bio; host or cells: membrane protein extracts of normal prostate and prostate cancer
# T4 sequence (P35052 24-558): T1 sequence (P35052 24-558)
# Excerpt: To determine if MIL38 antigen could be detected in membrane protein extracts from normal prostate and prostate cancer, one sample of each was obtained from Novus Bio. Equivalent amounts of protein were western blotted using MIL38 antibody (FIG. 16B).
molecule,measurement,setting,value
B1,ELISA response versus antibody concentration,"human glypican-1 (GPC-1); 1 μg/ml and 10 μg/ml, normal stringency",concentration dependent response
same,saturation of ELISA signal,human glypican-1 (GPC-1); 10 μg/ml,saturation was not observed
same,stretches / common cores of GPC-1 recognized on the peptide arrays,"human glypican-1 (GPC-1); peptide sets 1-5 (linear, loop, helical, sheet)",135TQNARAFRD143 (SEQ ID NO: 7) and 348[…]358 (SEQ ID NO: 2)
same,molecular weight of protein detected,glypican-1 core protein,60 kDa
same,depletion of MIL38 and anti-GPC-1 antigens by immunoprecipitation,glypican-1 [1]; DU-145 MPEK flow through,almost complete depletion
same,reactive band detected in the other antibody's immunoprecipitate,"glypican-1 [1]; DU-145 MPEK, IP with one antibody, blot with the other",60 kDa
same,specific bands detected in plasma immunoprecipitates,glypican-1 [2]; MIL38 IP of both plasma samples,approx. 70 kDa
same,signal in prostate cancer patient plasma compared to normal patient plasma,glypican-1 [2]; patient 046 vs 042,markedly higher
same,expression of MIL38 antigen in prostate cancer extract versus normal prostate sample,MIL38 antigen,much higher
